# Reference: patent publication US20190367620A1 (Merck KGaA, published 2019)
# T1: human FGFR1b-IIIc extracellular domain with a HIS tag (human, UniProt P11362 22-376)
# T1 construct: also called huFGFR1b-IIIc; hFGFR1b-IIIc
# T1 sequence: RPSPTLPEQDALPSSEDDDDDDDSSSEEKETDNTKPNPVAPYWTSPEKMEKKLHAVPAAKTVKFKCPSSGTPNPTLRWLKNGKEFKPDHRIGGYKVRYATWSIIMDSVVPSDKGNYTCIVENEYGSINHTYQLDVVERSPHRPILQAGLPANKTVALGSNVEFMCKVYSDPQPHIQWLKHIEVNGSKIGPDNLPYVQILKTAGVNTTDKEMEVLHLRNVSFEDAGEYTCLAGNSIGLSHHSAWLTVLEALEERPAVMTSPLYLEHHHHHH
# T2: FGFR1 D2 point mutant S45A (human, UniProt P11362 22-254)
# T2 chain: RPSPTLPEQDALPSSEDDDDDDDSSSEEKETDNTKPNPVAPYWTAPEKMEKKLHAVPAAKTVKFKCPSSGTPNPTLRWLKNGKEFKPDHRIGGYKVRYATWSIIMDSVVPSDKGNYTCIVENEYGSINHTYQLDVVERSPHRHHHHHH
# T3: FGFR1 D2 point mutant K48A (human, UniProt P11362 22-254)
# T3 chain: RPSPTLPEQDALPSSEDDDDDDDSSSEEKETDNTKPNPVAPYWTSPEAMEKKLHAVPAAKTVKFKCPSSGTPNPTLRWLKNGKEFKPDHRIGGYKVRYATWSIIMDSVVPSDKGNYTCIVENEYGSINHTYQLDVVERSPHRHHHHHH
# T4: FGFR1 D2 point mutant K52A (human, UniProt P11362 22-254)
# T4 chain: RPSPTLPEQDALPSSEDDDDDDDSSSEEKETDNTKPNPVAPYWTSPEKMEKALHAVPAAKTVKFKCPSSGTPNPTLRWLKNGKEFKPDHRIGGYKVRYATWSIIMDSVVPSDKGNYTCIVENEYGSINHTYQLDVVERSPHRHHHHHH
# T5: FGFR1 D2 point mutant P57A (human, UniProt P11362 22-254)
# T5 chain: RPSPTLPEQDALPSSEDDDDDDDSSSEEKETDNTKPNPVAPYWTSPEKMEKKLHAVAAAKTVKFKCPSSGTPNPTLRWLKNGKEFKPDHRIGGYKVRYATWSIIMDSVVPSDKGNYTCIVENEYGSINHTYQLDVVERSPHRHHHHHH
# T6: FGFR1 D2 point mutant S102A (human, UniProt P11362 22-254)
# T6 chain: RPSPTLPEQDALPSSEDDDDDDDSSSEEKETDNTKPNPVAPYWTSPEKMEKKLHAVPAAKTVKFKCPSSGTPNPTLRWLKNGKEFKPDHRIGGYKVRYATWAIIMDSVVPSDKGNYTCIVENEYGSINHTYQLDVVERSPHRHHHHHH
# T7: FGFR1 D2 point mutant I104A (human, UniProt P11362 22-254)
# T7 chain: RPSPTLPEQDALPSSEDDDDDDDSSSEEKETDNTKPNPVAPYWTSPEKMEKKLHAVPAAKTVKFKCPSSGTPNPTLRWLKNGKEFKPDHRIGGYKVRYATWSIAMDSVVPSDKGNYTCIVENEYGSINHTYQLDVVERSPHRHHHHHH
# T8: human FGFR1b-IIIb extracellular domain with a HIS tag (human)
# T8 construct: also called huFGFR1b-IIIb; hFGFR1b-IIIb
# T8 chain: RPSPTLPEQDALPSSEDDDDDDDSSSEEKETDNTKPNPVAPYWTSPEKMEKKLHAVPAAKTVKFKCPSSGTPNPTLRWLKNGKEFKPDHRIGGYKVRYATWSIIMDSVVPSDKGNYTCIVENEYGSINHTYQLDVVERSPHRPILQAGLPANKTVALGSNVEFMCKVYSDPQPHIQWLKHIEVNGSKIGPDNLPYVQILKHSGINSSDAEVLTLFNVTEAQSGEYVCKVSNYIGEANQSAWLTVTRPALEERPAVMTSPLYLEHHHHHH
# Experiments:
# [1] = molecular target: T1, human FGFR1b-IIIc extracellular domain …; assay: SPR as in Example 1.8
# Outline: (§1)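 Anti-FGFR1 mAb captured via immobilised anti-human Fc to ~200 RU; 2-fold dilutions of His-tagged FGFR1 (wild-type or HEK-expressed point mutants, Ala→Gly for native Ala) injected at 25° C in HBS-EP+. kon/koff from 1:1 Langmuir fit; KD = koff/kon.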
# [2] = molecular target: T2, FGFR1 D2 point mutant S45A; assay: SPR as in Example 1.8
# Outline: as §1
# [3] = molecular target: T3, FGFR1 D2 point mutant K48A; assay: SPR as in Example 1.8
# Outline: as §1
# [4] = molecular target: T4, FGFR1 D2 point mutant K52A; assay: SPR as in Example 1.8
# Outline: as §1
# [5] = molecular target: T5, FGFR1 D2 point mutant P57A; assay: SPR as in Example 1.8
# Outline: as §1
# [6] = molecular target: T6, FGFR1 D2 point mutant S102A; assay: SPR as in Example 1.8
# Outline: as §1
# [7] = molecular target: T7, FGFR1 D2 point mutant I104A; assay: SPR as in Example 1.8
# Outline: as §1
# [8] = molecular target: T8, human FGFR1b-IIIb extracellular domain …; assay: ELISA, antibody titrated on huFGFR1b-IIIb, O.D. 450 nm [panel huFGFR1b-IIIb]
binder,measurement,setting,value
"mAb #A08 (antibody, V domains shown, Only variable domains are tied to the name mAb #A08 (hit); also called #A08 hit; mAb #08) VH: EVQLQESGPGLVKPSGTLSLTCAVSGGSISSNNWWSWVRQPPGKGLEWIGEIYHSGSTSYNPSLKSRVTISVDKSKNQFSLKLNSVTAADTAVYYCARGTDWFDPWGQGTLVTVSS VL: QAVLTQPPSVSVAPGQTARITCGGNNIGSESVHWYQQKPGQAPVLVVYDDSDRPSGIPERFSGSNSGNTATLTISRVEAGDEADYYCQVWDSTSDHRVFGGGTKLTVL",Kd,[1],0.48 nM
same,Kd,[2],0.21 nM
same,Kd,[3],0.09 nM
same,Kd,[4],0.23 nM
same,Kd,[5],0.41 nM
same,Kd,[6],0.16 nM
same,Kd,[7],0.93 nM
same,EC50 (read off the curve),[8],~0.03 nM
